Assay [1] has as its target BonA, endogenous in A. baumannii ATCC 19606 membranes (Acinetobacter baumannii ATCC 19606 (endogenous)). Briefly: native gel or EMSA; 5 to 16% blue-native PAGE of 50 μg total membranes solubilized in detergent, Western blot with anti-BonA antiserum. (In EMSA bound probe runs differently from free probe, usually more slowly.)
The target of assay [2] is BonA-C45, 45-aa C-terminally truncated BonA (Acinetobacter baumannii). Briefly: SEC-MALS; 100 μl at 1 to 5 mg/ml on Superdex 200 10/300 GL, 20 mM Tris-200 mM NaCl pH 7.9.
Assay [3] concerns the target BonA, full-length soluble recombinant protein (mature, lacking its signal sequence) (Acinetobacter baumannii). The description is as above.
Assay [4] has the same target. The assay is described as follows: AUC; sedimentation velocity, 0.25 to 2 mg/ml, 40,000 rpm, 20°C, 50 mM Tris-200 mM NaCl pH 7.9.

As a reminder, the stoichiometry N is a count of units in the complex or per binding partner. In assay [1], “BonA, endogenous in A. baumannii ATCC 19606 membranes (natural protein)” registered a stoichiometry N of 2.

Take “BonA-C45, 45-aa C-terminally truncated BonA (domain or fragment)”: the stoichiometry N in assay [2] came out at 10. With “BonA, full-length soluble recombinant protein (mature, lacking its signal sequence) (natural protein)”, the stoichiometry N in assay [3] and in assay [4] was 10 throughout.

These data come from PMC8406262.
